Legend:
[1] = molecular target: T1, recombinant human CD3 epsilon/delta heterodimer (human, UniProt P07766 23-126; P04234 22-105); experiment: Octet BLI, mAb on FAB2G sensor, hCD3 E/D 200-50 nM; R^2 0.99
T1 construct: Recombinant protein in solution (200-50 nM) in the Octet assay; also called hCD3 E/D; human CD3E/D
T1 sequence (P07766 23-126, stated change not applied, chain 1 of 2): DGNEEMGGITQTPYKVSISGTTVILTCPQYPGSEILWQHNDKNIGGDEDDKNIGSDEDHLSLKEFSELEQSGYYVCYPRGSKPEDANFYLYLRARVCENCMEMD
T1 sequence (P04234 22-105, stated change not applied, chain 2 of 2): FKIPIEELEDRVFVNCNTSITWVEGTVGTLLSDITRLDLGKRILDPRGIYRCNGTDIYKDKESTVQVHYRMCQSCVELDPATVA

[2] = molecular target: T2, recombinant human CD3 epsilon/gamma heterodimer (human, UniProt P07766 23-126; P09693 23-116); experiment: Octet BLI, mAb on FAB2G sensor, hCD3 E/G 200-50 nM; R^2 0.99
T2 construct: Recombinant protein in solution (200-50 nM) in the Octet assay; also called hCD3 E/G
T2 sequence (P07766 23-126, chain 1 of 2): as the sequence (P07766 23-126, stated change not applied, chain 1 of 2) above
T2 sequence (P09693 23-116, chain 2 of 2): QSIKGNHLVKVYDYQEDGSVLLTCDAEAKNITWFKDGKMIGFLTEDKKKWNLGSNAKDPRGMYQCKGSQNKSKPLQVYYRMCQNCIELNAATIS

[3] = molecular target: T3, recombinant human CD3 epsilon/delta heterodimer (human, UniProt P07766 23-126; P04234 22-105); experiment: BLI (Octet), mAb 5 ug/mL on FAB2G sensor, hCD3 E/D 200-50 nM
T3 construct: Recombinant heterodimer used as analyte in Octet; also called hCD3 E/D; human CD3E/D
T3 sequence (P07766 23-126, stated change not applied, chain 1 of 2): as the sequence (P07766 23-126, stated change not applied, chain 1 of 2) above
T3 sequence (P04234 22-105, stated change not applied, chain 2 of 2): as the sequence (P04234 22-105, stated change not applied, chain 2 of 2) above
Description: (§1) Samples were evaluated by flow cytometry analysis against Jurkat and human Pan-T cells (FIG. 1B) as well as by Octet against recombinant human CD3 proteins to evaluate apparent affinities and binding off-rates (Table 6, infra).

[4] = molecular target: T4, recombinant human CD3 epsilon/gamma heterodimer (human, UniProt P07766 23-126; P09693 23-116); experiment: BLI (Octet), mAb 5 ug/mL on FAB2G sensor, hCD3 E/G 200-50 nM;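 further: antibodies purified from hybridoma supernatants, measured by Octet binding to recombinant human CD3 protein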
T4 construct: Recombinant heterodimer used as analyte in Octet; also called hCD3 E/G
T4 sequence (P07766 23-126, chain 1 of 2): as the sequence (P07766 23-126, stated change not applied, chain 1 of 2) above
T4 sequence (P09693 23-116, chain 2 of 2): as the sequence (P09693 23-116, chain 2 of 2) above
Description: as §1

Binder | Kd [1] [nM] | Response [1] | koff [1] [s⁻¹] | kon [1] [M⁻¹ s⁻¹] | Kd [2] [nM] | Response [2] | koff [2] [s⁻¹] | kon [2] [M⁻¹ s⁻¹] | Kd [3] [nM] | Response [3] | koff [3] [s⁻¹] | kon [3] [M⁻¹ s⁻¹] | Kd [4] [nM] | Response [4] | koff [4] [s⁻¹] | kon [4] [M⁻¹ s⁻¹]
ABL-CD3-3 (antibody, V domains shown, Chimeric hybridoma mAb: human V, CH1, upper hinge; mouse middle hinge, CH2, CH3) VH: EVQLVESGGGLVKPGGSLRLSCAASGFTFSSYSMNWVRQAPGKGLEWVSYISRSSNYIHYADSVKGRFTIFRDNAKNSLYLQMNSLRVEDTAVYYCARAERGSYAVDIWGQGTMVTVSS VL: not shown | 10.4 | 1.03 | 0.0012 | 116000 | 12.4 | 0.96 | 0.00143 | 115000 |  |  |  |  |  |  |  | 
ABL-CD3-5 (antibody, V domains shown, Chimeric hybridoma mAb: human V, CH1, upper hinge; mouse middle hinge, CH2, CH3) VH: EVQLVESGGGLVQPGGSLRLSCAASGFTFSRYSMNWVRQAPGKGLEWVSYISSSSSSIYYADSVKGRFTISRDNAKNSLYLQMNSLRDEDTAVYYCARDRRATLDYWGQGTLVTVSS VL: NFMLTQPHSVSESPGKTVTISCTRSSGSIASNYVQWYQQRPGSSPTTVIYEDNQRPSGVPDRFSGSIDSSSNSASLTISGLKTEDEADYYCQSYDSSNHVFGGGTKLTVL | 88.1 | 0.36 | 0.0321 | 365000 | 106 | 0.27 | 0.0449 | 423000 |  |  |  |  |  |  |  | 
ABL-CD3-53 (antibody, V domains shown, Chimeric hybridoma mAb: human V, CH1, upper hinge; mouse middle hinge, CH2, CH3) VH: EVQLVESGGGLVKPGGSLRLSCAASGFTFSSYTMNWVRQAPGKGLEWVSSITTSSSYIYYADSVKGRFTISRDNAKNSLYLQMNSLRAEDTAVYYCARVTFDAFDIWGQGTMVTVSS VL: NFMLTQPHSVSESPGKTVTISCTRSSGSIASNYVQWYQQRPGSSPTTVIYEDNQRPSGVPDRFSGSIDSSSNSASLTISGLKTEDEADYYCQSYDSSNRVFGGGTKLTVL | 146 | 0.24 | 0.0199 | 136000 | 88.7 | 0.4 | 0.00714 | 80500 |  |  |  |  |  |  |  | 
ABL-CD3-28 (antibody, V domains shown, Chimeric hybridoma mAb: human V, CH1, upper hinge; mouse middle hinge, CH2, CH3) VH: QVQLQQSGPGLVKPSQTLSLTCAISGDSVSSNSVAWNWIRQSPSRGLEWLGRTYYRSKWYNECAGSVKSRITINPDTSKNQFSLQLNSVTPEDTAIYYCARERKWELFLDYWGQGTLVTVSS VL: NFMLTQPHSVSESPGKTVTISCTRSSGSIASNYVQWYQQRPGSSPTTVIYEDNQRPSGVPDRFSGSIDSSSNSASLTISGLKTEDEADYYCQSFDSSNVVFGGGTKLTVL | 7.88 | 0.77 | 0.00133 | 168000 | 5.6 | 0.77 | 0.000798 | 143000 |  |  |  |  |  |  |  | 
ABL-CD3-48 (antibody, V domains shown, Chimeric hybridoma mAb: human V, CH1, upper hinge; mouse middle hinge, CH2, CH3) VH: EVQLVESGGGLVKPGGSLRLSCAASGFTFSSYTMNWVRQAPGKGLEWVSSISGSGSYIYYADSVKGRFTISRDNAKNSLYLQMNSLRAEDTAVYYCAREPPTLGMDYWGQGTLVTVSS VL: NFMLTQPHSVSESPGKTVTISCTRSSGSIASNYVQWYQQRPGSSPTTVIYEDNQRPSGVPDRFSGSIDSSSNSASLTISGLKTEDEADYYCQSFDSSNRVFGGGTKLTVL | 11.5 | 1.17 | 0.00114 | 99300 | 17.9 | 1.03 | 0.00179 | 100000 |  |  |  |  |  |  |  | 
ABL-CD3-86 (antibody, V domains shown, mAb purified from hybridoma; chimeric AlivaMab IgG (human VH, CH1 and upper hinge; mouse middle hinge, CH2, CH3; human light chain)) VH: EVQLVESGGGLVKPGGSLRLSCAASGFTFSRYSMNWVRQAPGKGLEWVSTISRSSRYIYYGDSVKGRFTISRDNAKNSLLLQMNSLRAEDTAVYYCARDHNWSFDYWGKGILVTVSS VL: NFMLTQPLSVSESPGKTLTISCTRNSGSIASNYVQWYRQRPGSSPTTVIYEDKQRPSGVPDRFSGSIDSSSNSASLTISGLKAEDEADYYCQSCDSSNVVFGGGTTLTVL |  |  |  |  |  |  |  |  | 3.88 | 1.1 | 0.000711 | 184000 | 3.52 | 1.17 | 0.000558 | 158000
ABL-CD3-20 (antibody, V domains shown, Chimeric hybridoma mAb: human V, CH1, upper hinge; mouse middle hinge, CH2, CH3) VH: EVQLVESGGGLVKPGGSLRLSCAASGLTFSTYSMNWVRQAPGKGLEWVSSISSSGSYVYYADSVKGRFTMSRDNAKNSLYLQMNSLRAEDTAVYYCARERRELLFDYWGQGTLVTVSS VL: NFMLTQPHSVSESPGKTVTISCTRSSGSIASNYVQWYQQRPGSSPTSVIYEDNQRPSGVPDRFSGSIDSSSNSASLTISGLKTEDEADYYCQSYDRSNRVFGGGTKLTVL | 10.5 | 0.51 | 0.00229 | 219000 | 18.3 | 0.45 | 0.00379 | 207000 |  |  |  |  |  |  |  | 
ABL-CD3-24 (antibody, V domains shown, Chimeric hybridoma mAb: human V, CH1, upper hinge; mouse middle hinge, CH2, CH3) VH: EVQLVESGGGLVKPGGSLRLSCVASGFTFSSYTMNWVRQAPGKGLEWVSSISRSGSYKYNADSVKGRFTISRDNAKNSLYLQMNSLRVEDTAVYYCAREPPTLGMDYWGQGTLVTVSS VL: NFMLTQPHSVSESPGKTVTISCTRSSGSIASNYVQWYQQRPGSSPTTVIYEDNQRPSGVPDRFSGSIDSSSNSASLTISGLKTEDEADYYCQSFYSSNRVFGGGTELTVL | 5.78 | 0.93 | 0.00101 | 175000 | 8.48 | 0.89 | 0.00134 | 158000 |  |  |  |  |  |  |  | 
ABL-CD3-12 (antibody, V domains shown, Chimeric hybridoma mAb: human V, CH1, upper hinge; mouse middle hinge, CH2, CH3) VH: EVQLVESGGGLVKPGGSLRLSCAASGFTFSSYTMNWVRQAPGKGLEWVSSISRSSSYKYYADSVKGRFTISRDNAKNSLYLQMNSLRAEDTAVYYCAREPPTLGMDYWGQGTLVIVSS VL: NFMLTQPHSVSESPGKTVTISCTRSNGSITSNYVQWYQQRPGSSPTTVIYEDNQRPSGVPDRFSGSIDSSSNSASLTISGLKTEDEADYYCQSFDNSNRVFGEKTKLTVL | 10.6 | 1.21 | 0.00144 | 136000 | 10.5 | 1.14 | 0.00124 | 118000 |  |  |  |  |  |  |  | 
ABL-CD3-50 (antibody, V domains shown, Chimeric hybridoma mAb: human V, CH1, upper hinge; mouse middle hinge, CH2, CH3) VH: QVQLQQSGPGLVKPSQTLSLTCAISGDSVSSNSVAWNWIRQSPSRGLEWLGRTYSRSKWYNDYAVSVKSRITINPDTSKNQFSLELNSVTPEDTAVYYCARERKWELFLDYWGQGTLVTVSS VL: NFMLTQPHSVSESPGKTVTISCTRSSGSIASNYVQWYQQRPGISPTTVIYEDNQRPSGVPDRFSGSIDSSSNSASLTISGLKTEDEADYYCQSFDTSNVVFGGGTKLTVL | 21 | 0.57 | 0.0047 | 224000 | 12.6 | 0.6 | 0.00247 | 196000 |  |  |  |  |  |  |  | 
ABL-CD3-47 (antibody, V domains shown, Chimeric hybridoma mAb: human V, CH1, upper hinge; mouse middle hinge, CH2, CH3) VH: EVQLVESGGGLVQPGGSLRLSCAASGFTFSRYSMNWVRQAPGKGLEWVSYISRSSTTIYYADSVKGRFTISRDNAKNSLYLQMNSLRDEDAAVYYCARERWELLYFDYWGQGTLVTVSS VL: NFMLTQPHSVSESPGKTVTISCTRSSGSIASKYVQWYQQRPGSSPTTVIYEDNQRPSGVPDRFSGSIDSSSNSASLTISGLKTEDEADYYCQSYYSNNRVFGGGTKLTVL | 16.9 | 0.62 | 0.00291 | 172000 | 36.2 | 0.43 | 0.00785 | 217000 |  |  |  |  |  |  |  | 
ABL-CD3-10 (antibody, V domains shown, Chimeric hybridoma mAb: human V, CH1, upper hinge; mouse middle hinge, CH2, CH3) VH: QVQLQQSGPGLVKPSQTLSLTCAISGDSVSCNSVAWNWIRQSPSRGLEWLGRTYYRSKWHNEYAVSVKSRINIKPDTSKNQVSLQLKSVTPEDTAVYYCARERKWELFLDYWGQGTLVTVSS VL: NFMLTQPHSVSESPGKTVTISCTRSSGSIASNYVQWYQQRPGSSPTTMIYEDNQRPSGVPDRFSGSIDSSSNSASLTISGLKTEDEADYYCQSLDSSSVVFGGGTKLTVL | 2.47 | 0.52 | 0.00046 | 186000 | 2.41 | 0.46 | 0.00039 | 162000 |  |  |  |  |  |  |  | 
ABL-CD3-26 (antibody, V domains shown, Chimeric hybridoma mAb: human V, CH1, upper hinge; mouse middle hinge, CH2, CH3) VH: EVHLVESGGGLVKPGGSLRLSCAASGFTFSSYSMNWVRQAPGKGLEWVSSISSSSTYIYYADSVKGRFTISRDNAKNSLYLQMNSLRAEDTAVYYCAREPRTLGMDYWGQGILVTVSS VL: NFMLTQPHSVSESPGKTVTISCTRSSGSIASNYVQWYQQRPGSSPTTVIYEDNHRPSGVPDRFSGSIDSSSNSASLTISGLKTEDEADYFCQSFDSSNRVFGGGTKLTVL | 6.66 | 1.03 | 0.00104 | 156000 | 9.31 | 1.01 | 0.00123 | 132000 |  |  |  |  |  |  |  | 
ABL-CD3-7 (antibody, V domains shown, Chimeric hybridoma mAb: human V, CH1, upper hinge; mouse middle hinge, CH2, CH3) VH: EVQLVESGGGLVKPGGSLRLSCAASGFTFSRYSMNWVRQAPGKGLKWVSSISSSGSYKYYADSVKGRFTISRDNAKNSLYLQMNSLRAEDTAVYYCAREPPTLGMDYWGQGTLVTVSS VL: NFMLTQPHSVSESPGKTVTISCTRSSGSIASNYVQWYQQRPGSSPTTVIYEDNQRPSGVPDRFSGSIDSSSNSASLTISGLKTEDEADYYCQSFDNSNRVFGGGTKLTVL | 4.14 | 0.86 | 0.000786 | 190000 | 8.42 | 0.81 | 0.00142 | 169000 |  |  |  |  |  |  |  | 
ABL-CD3-4 (antibody, V domains shown, Chimeric hybridoma mAb: human V, CH1, upper hinge; mouse middle hinge, CH2, CH3) VH: VQLVESGGGLVKPGGSLRLSCAASGFTFSSYNMNWVRQAPGKGLEWVSSISSSSSYIYYADSVKGRFTISRDNAKNSLYLQMNSLRAEDTAVFYCARAERGSYAFDIWGQGTMVTVSS VL: not shown | 94.5 | 0.32 | 0.0302 | 320000 | 91.9 | 0.36 | 0.0221 | 241000 |  |  |  |  |  |  |  | 

Source: US20260167721A1 (ABLEXIS, published 2026)
